Test results published in the supplement of paper PMC9732359.
± gives the uncertainty stated by the source.

Assay: protein stability index of a GFP-peptide fusion (yeast GPS) (PSI 1-4); higher = more stable; sorted into four equal gates, so the index is relative within each strain
Outline: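 Yeast carrying a pooled library were grown to mid-log phase in leucine-free medium. Each library plasmid expresses Cherry and has a tiled 17-residue yeast protein peptide fused downstream of GFP. Cells were sorted into four equal gates by GFP/Cherry ratio, and plasmids from each gate were PCR-amplified, Illumina-sequenced and assigned to strains by barcode. Summing, across gates, the read frequency times the gate number gave each peptide's protein stability index.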

Sequence	protein stability index (doa10∆)	protein stability index (pdr5∆)	protein stability index (san1∆)	protein stability index (ubr1∆)
DNDSLTDLESLSSGESN [SIR4]	3.15 ± 0.096	3.31 ± 0.12	3.07 ± 0.074	3.09 ± 0.073
DIYSHEYKVITSLQGTY [YMR129W/POM152]	1.89 ± 0.064	2.43 ± 0.07	2.65 ± 0.075	2.49 ± 0.048
TGRMRYLKHVSRRFKNG [RPL37A]	2.67 ± 0.059	3.25 ± 0.042	3.44 ± 0.048	3.38 ± 0.047
AGGPDMTTPQNISSSQQ [DSN1]	2.83 ± 0.044	3.04 ± 0.04	2.83 ± 0.037	2.93 ± 0.04
SYAGKQVVGPFHTSFSA [SMC4]	2.7 ± 0.078	3.33 ± 0.11	3.08 ± 0.056	3.13 ± 0.049
NDEPSHKKIKVAQPDSL [SIR2]	2.32 ± 0.079	2.31 ± 0.071	1.63 ± 0.1	3.19 ± 0.055
SNDFEEGSTIRYLAVTL [YMR129W/POM152]	2.06 ± 0.05	2.28 ± 0.049	2.12 ± 0.062	2.26 ± 0.053
INDRNDRAIRKTCQWYS [DIS3]	3.21 ± 0.087	3.09 ± 0.097	2.98 ± 0.068	3.25 ± 0.12
LNAELESKLIPQENDLE [SMC3]	3.12 ± 0.1	3.16 ± 0.076	3.23 ± 0.075	3.15 ± 0.057
MVNESDGVTHALYPQEA [RPB2]	3.16 ± 0.087	3.26 ± 0.081	3.05 ± 0.067	3.35 ± 0.086
EPTVRIQAVFCLTKFQD [YCG1]	2.27 ± 0.05	2.53 ± 0.046	2.28 ± 0.063	2.78 ± 0.047
KDIIDPKLTSIFERMIE [RPN2]	2.68 ± 0.14	2.99 ± 0.11	2.93 ± 0.078	2.66 ± 0.1
QLIAKNVANVSGSTEKA [SIR3]	3.03 ± 0.085	3.04 ± 0.07	3.1 ± 0.054	2.88 ± 0.061
LVKIDDLSANQRETMKE [SMC1]	3.29 ± 0.083	3.22 ± 0.091	3 ± 0.11	3.45 ± 0.089
IWDSQKFFIMIVKGNII [POP4]	1.37 ± 0.069	1.44 ± 0.096	1.38 ± 0.15	1.32 ± 0.083
ADVFRRCLVAVIQQDKY [SRP72]	1.6 ± 0.11	2.17 ± 0.066	1.86 ± 0.1	2.74 ± 0.18
SASLHTRSLKYGKLRNG [RRP4]	1.58 ± 0.075	2.15 ± 0.11	1.08 ± 0.13	2.82 ± 0.16
SEHFDVNDNPDIEAGDD [DIS3]	2.81 ± 0.058	2.93 ± 0.058	2.72 ± 0.076	3.08 ± 0.045
SLQYINIRGNTIRQIIL [SMD1]	3.15 ± 0.097	3.26 ± 0.085	2.73 ± 0.1	2.94 ± 0.065
NNMNVNMNLNPQMFLNQ [GAL11]	2.14 ± 0.043	2.56 ± 0.046	2.46 ± 0.048	2.48 ± 0.035

Sequence	protein stability index (doa10∆)	protein stability index (pdr5∆)	protein stability index (san1∆)	protein stability index (ubr1∆)
AKLHRISPKIWCAGAGT [PUP1]	1.93 ± 0.049	1.87 ± 0.046	1.85 ± 0.056	1.88 ± 0.042
GSADIGASVISLTKDKS [SIR4]	3.01 ± 0.086	3.12 ± 0.067	2.92 ± 0.084	3.21 ± 0.052
SKSVPTPSLPIAPPVAP [SNF5]	2.74 ± 0.057	2.81 ± 0.061	3.1 ± 0.045	2.55 ± 0.061
KLLAISKFNNADDVFTG [RPC31]	3.03 ± 0.15	2.9 ± 0.2	2.92 ± 0.13	2.57 ± 0.12
TTVIGIRGSDQAIPKFQ [RPN2]		2.74 ± 0.23		
AVNWQDKQGWTPLFHAL [NAS6]	2.07 ± 0.16	2.1 ± 0.18	2.4 ± 0.092	
QKYNLLHVLPTLNSRAL [SNM1]	1.45 ± 0.084	1.74 ± 0.078	1.27 ± 0.18	1.56 ± 0.11
LASKIKQYERLRFYKDT [RRI1]	2.63 ± 0.068	2.52 ± 0.062	1.97 ± 0.077	2.19 ± 0.08
DLSRNGRNGSNGNDESS [NUT1]	3.19 ± 0.078	3.33 ± 0.09	3.18 ± 0.059	3.14 ± 0.068
LQMRLKESEISHNENKM [YIL149C/MLP2]	2.94 ± 0.065	2.96 ± 0.068	3.18 ± 0.068	3.18 ± 0.09
VQEQLSKNRIIVEADEK [RET1]	1.52 ± 0.088	1.37 ± 0.052	1.65 ± 0.14	1.4 ± 0.062
DSSSVSEDSAVFKATSS [FAS1]	3 ± 0.089	3.32 ± 0.096	2.98 ± 0.065	3.14 ± 0.083
SSTPKFTKKPVTPNDKI [SIR4]	2.96 ± 0.11	2.89 ± 0.07	2.96 ± 0.062	3.08 ± 0.054
MHSYFIFKDLVTVFLFM [COB]	1.47 ± 0.04	1.32 ± 0.037	1.36 ± 0.056	1.34 ± 0.025
SIQMEFMLRKQDPKTLV [SSN2]	1.73 ± 0.066	2 ± 0.049	1.82 ± 0.08	2.05 ± 0.045
NENEDEDEGTLNVAEII [ARP9]	3.37 ± 0.13	2.91 ± 0.14	3.34 ± 0.072	2.13 ± 0.12
LKFFLVDENETVLESLG [LIN1]	3.26 ± 0.27	2.94 ± 0.092	2.9 ± 0.18	3.04 ± 0.15
KHDSLRYRLLSDVSDFE [RPN1]	2.7 ± 0.09	3.04 ± 0.1	2.75 ± 0.089	2.66 ± 0.098
GNSFNKSSNDTIEHAAD [YCG1]	2.14 ± 0.058	2.67 ± 0.048	2.37 ± 0.047	2.64 ± 0.057
NTLLISGPFKVNGVPLR [RPL6A]	2.25 ± 0.074	2.36 ± 0.059	2.28 ± 0.076	2.72 ± 0.04
